# Experiments:
# [1] = molecular target: parDMFase large subunit expressed and purified without the small subunit (Paracoccus sp. strain DMF); experiment: SEC; large subunit purified without the small subunit; data not shown
# [2] = molecular target: parDMFase α2β2 complex (the 'dimer', 200 kDa) (Paracoccus sp. strain DMF); experiment: cryo-EM structure; purified parDMFase on ice; data set with 200 mM NaCl, tetramer (α2β2)2 reconstruction at 2.8 Å (initial mixed data set: 3.8 Å); step: dimer of α2β2 dimers
Substance,stoichiometry N [1],stoichiometry N [2]
parDMFase large subunit expressed and purified without the small subunit (enzyme),2,–
"parDMFase α2β2 complex (the 'dimer', 200 kDa)",–,2
